Earlier results, collected in article PMC4321873.

Biological target: Glu286 (UniProt position 286, FFGHPEVYIIV)
Experiment: kinetics

## Cytochrome c oxidase (aa3-type), subunit I (Rhodobacter sphaeroides)
  pKa: ∼9.4
